Measured values published in patent US20230056856, “COMPOSITIONS AND METHODS FOR TUNABLE REGULATION OF TRANSCRIPTION” (OBSIDIAN THERAPEUTICS, INC., published 2023).

B1: 8xZFHD1 binding sites of payload ZFHD-007 (dsDNA)
DNA 1: TAATGATGGGCGCACGAGTAATGATGGGCGGACGACTAATGATGGGCGCACGAGTAATGATGGGCGTCTAGCTAATGATGGGCGCTAGAGTAATGATGGGCGGTAGACTAATGATGGGCGCTCCAGTAATGATGGGCG
DNA 2: CGCCCATCATTACTGGAGCGCCCATCATTAGTCTACCGCCCATCATTACTCTAGCGCCCATCATTAGCTAGACGCCCATCATTACTCGTGCGCCCATCATTAGTCGTCCGCCCATCATTACTCGTGCGCCCATCATTA
B2: 8xZFHD1 BS payload ZFHD-022 (dsDNA)
DNA 1: B1 DNA 1
DNA 2: B1 DNA 2

Key:
[1] = target: ZFHD1-p65 (ZFHD-004, constitutive) (Artificial (Homo sapiens/Mus …)); assay: cell_activity; U2OS, constitutive TF; TMP/DMSO ratio only, not regulated by ligand
[2] = target: ZFHD1-p65-CA2(L156H) (ZFHD-019) (Artificial); assay: cell_activity; ARPE-19, GFP MFI 10 uM ACZ vs DMSO, 48 h; in U2OS ACZ EC50 of payload 1.1 uM (Example 9)
Method: Cells were cultured in DMEM-F12 media supplemented with 10% FBS.
Ligand treatment: Each cell line was plated at a density of 15,000 cells/well in 6-8 wells of a 24-well plate. Cells were allowed to adhere overnight. […] After 48 hours incubation, cells were removed from the plate with 0.25% trypsin and collected. […] For flow cytometry, samples were washed once with cell staining buffer (Biolegend, San Diego, Calif.), resuspended in cell staining buffer with 1% QSol™ buffer (Intellicyt Corporation, Albuquerque, N. Mex.), and analyzed by flow cytometry.

[3] = target: ZFHD1-ecDHFR(R12Y,Y100I)-p65 (ZFHD-008) (Artificial); assay: cell_activity; U2OS, GFP MFI 10 uM TMP vs DMSO, 72 h
Method: (§1) Ligand treatment: Each cell line was plated in 12-well plates at a density of 80,000 cells/well and allowed to adhere overnight. Media was removed and replacement media either with 10 μM Trimethoprim (TMP) or 0.1% DMSO was added. Cells were incubated for 24 hour, 48 hour, and 72 hour timepoints. At each timepoint, cells were removed from the plates with 0.25% trypsin for collection. A 0 hour timepoint was also collected before addition of TMP or DMSO.

[4] = target: ZFHD1-p65-ecDHFR(R12Y,Y100I) (ZFHD-005) (Artificial); assay: as above
Method: as §1

[5] = target: ZFHD1-p65-linker-ecDHFR(R12Y,Y100I) (ZFHD-009) (Artificial); assay: as above
Method: as §1

[6] = target: ZFHD1-p65-CA2(L156H) (ZFHD-048) (Artificial); assay: cell_activity; Jurkat, GFP MFI 10 uM ACZ vs DMSO, 48 h

| Binder | activity [1] | activity [2] | activity [3] | activity [4] | activity [5] | activity [6] |
| --- | --- | --- | --- | --- | --- | --- |
| B1 | 0.894 fold | ~1.9 fold | 3.57 fold | 11.4 fold | 5.71 fold |  |
| B2 |  |  |  |  |  | ~2.1 fold |
